These results are taken from article PMC5180104, “Interaction of cytokeratin 19 head domain and HER2 in the cytoplasm leads to activation of HER2-Erk pathway” (Scientific Reports, 2016).

The target in the experiment is T1, purified recombinant Flag-tagged HER2 C-terminal domain (human, UniProt P04626 988-1255).
T1 construct: HER2, human, COOH-terminal domain; C-ter is defined as 988-1255 aa in the plasmid section; The results call this protein Flag-tagged; It may be the same construct as m14; source: HEK293T, transfected, purified (antibody bead column)
In words: pull-down; purified GST fusion proteins and purified HER2 C-terminal domain; Glutathione sepharose 4B (GSH beads). As to conditions: both partners purified.

B1: GST-T4 (domain or fragment, human, UniProt P08727 1-79, looked up)
chain: MTSYSYRQSSATSSFGGLGGGSVRFGPGVAFRAPSIHGGSGGRGVSVSSARFVSSSSSGAYGGGYGGVLTASDGLLAGN
notes: KRT19, human, T4 fragment (head domain); also called GST-T4 wt; source: E. coli, purified (Glutathione sepharose 4B column)
As for B1, the binding result is “binds”.
